Source: the supplement of paper PMC9170038

Test system: MS2 coat protein
Assay: apparent KD of MS2 coat protein; designed switch direction (-1 OFF switch, 1 ON switch): -1; higher = weaker reporter binding
Outline: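 The apparent KD reported per design is the median over clusters of curve fits to normalised cluster fluorescence. The RNA switches were transcribed on Illumina chips by stalled E. coli RNA polymerase. SNAP-549-labelled MS2 coat protein was titrated from 0.7 or 1.5 nM, doubling up to 3 µM, in Tris-HCl pH 7.5 buffer containing KCl, MgCl2, BSA, DTT, tRNA and Tween-20, with no input, 200 uM small-molecule ligand, or an oligonucleotide input.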

[1] = Eterna round: R95, input ligand: FMN 200 uM
[2] = Eterna round: R95, input ligand: microRNA oligo, concentration not stated
[3] = Eterna round: R95, input ligand: none
[4] = input ligand: microRNA oligo, concentration not stated

| Sequence | apparent KD of MS2 coat protein [1] | apparent KD of MS2 coat protein [2] | apparent KD of MS2 coat protein [3] | apparent KD of MS2 coat protein (input ligand: FMN 200 uM) | apparent KD of MS2 coat protein (input ligand: none) | apparent KD of MS2 coat protein [4] |
| --- | --- | --- | --- | --- | --- | --- |
| GCCAGAGCAGGAUAUUCAAUAUCUCACAUGAGGAUCACCCAUGUCCAUCGAAAGAUGGAGGGAGAAGGGCUCUGGC [Mat - Exclusion 5 - Eli mod - D92] (puzzle: Exclusion 5) | 37.3 nM | 45.5 nM | 64.7 nM | – | – | – |
| GCCAGAGCAGGAUAUUCAAUAUUCCACAUGAGGAUCACCCAUGUCCUGCGAAAGCAGGAGGGAGAAGGGCUCUGGC [Mat - Exclusion 5 - Eli mod - D91] (puzzle: Exclusion 5) | – | 56.2 nM | – | – | – | – |
| GCCAGAGCAGGAUAUUCAGUAUCACACAUGAGGAUCACCCAUGUCUAUCGAAAGAUAGAGGGAGAAGGGCUCUGGC [Mat - Exclusion 5 - Eli mod - D95] (puzzle: Exclusion 5) | 28.4 nM | 105 nM | 118 nM | – | – | – |
| GCCAGUGCAGGAUAUCUAUAACCCUACAUGAGGAUCACCCAUGUCCAGCGAAAGCUGGAGGGAGAAGGGCACUGGC [Fiskers Ex 5 - 27] (puzzle: Exclusion 5) | 15.5 nM | 17.6 nM | 21.5 nM | – | – | – |
| GCCAUGUAAGGAUAUAACCGUCUUCAUGAACAAUGAGGAUGUUAGAAGGUACAUGAGGAUCACCCAUGUCCUUC [Eternabot (Original) Solution 6] (Eterna round: R97, puzzle: Exclusion 4) | – | – | – | 15.7 nM | 12.5 nM | – |
| GCCGAAAGUGUGAGGAUAUACCUAUGGAUACAUAGGUAGAAGGCACAUGAGGAUCACCCAUGUUCCUCAUCGGC [Eli bmx4 4.17] (Eterna round: R97, puzzle: Brourd's mod of Exclusion 4) | – | – | – | 551 nM | 92.8 nM | – |
| GCCGUCAGUGUGAGGAUAUGCCUAUGGAUACGUAGGCAGAAGGCACAUGAGGAUCACCCAUGUCCUAAGACGGC [JL-BMX4-4.33 Eli mod] (Eterna round: R97, puzzle: Brourd's mod of Exclusion 4) | – | – | – | 146 nM | 190 nM | – |
| GCCUCACAUGAGGAUCACCCAUGUCAGGAUAUCUAAGGCGAAGUGCAAGCACCUCGUGAGAGAAGGGACGUCAA [Dienononen] (puzzle: Exclusion 1) | – | 20.9 nM | – | – | – | – |
| GCCUCACUUGAGGAUCACCCAAGUCAGGAUAUUCACUGAACUGCGUAACAGCUCGGCCGAAGAAGGGAUUCGGG [Leisatat] (Eterna round: R97, puzzle: Exclusion 1) | – | – | – | 80.8 nM | 78.5 nM | – |
| GCCUUAUCUGUCAGGAUAUACAAUAAAAUAACUUUGUAGAAGGGACAUGAGGAUCACCCAUGUACAUUACAUUG [alecazam24b] (Eterna round: R97, puzzle: Brourd's mod of Exclusion 4) | – | – | – | 63.1 nM | 24.6 nM | – |
| GCGCACCUACCAAAAGGUAGGUCAACAUGAGGAUCACCCAUGUAGGAUAUCGAUUGCUUUGCAGUCGAGAAGGACGUGAUGCGC [JL ENG3 3.80 Mod 15] (Eterna round: R96, puzzle: Exclusion NG 3) | – | – | – | 38 nM | 34.3 nM | 24.5 nM |
| GCGGACAAGAUGGUGACAUCAGAGACAUGAGGAUCACCCAUGUAGGAUAUCGAUUCGAAACGAAUCGAGAAGGGCAUAGUCCGC [JL denovo 3] (Eterna round: R96, puzzle: Exclusion NG 3) | – | – | – | 460 nM | 224 nM | 190 nM |
| GCGGAGUAUGUAGGAUAUCGGUCAGUUUCUGAUCGAGAAGGACAUGAGGAUCACCCAUGUAAAUUGCCCGCUUUGUGGGUCCGC [JL ENG1 3.61] (Eterna round: R96, puzzle: Exclusion NG 1) | – | – | – | 36.5 nM | 17.8 nM | 13.2 nM |
| GCGUAUGAGCAGGAUAUCCCGCGGGAAUCCAUAGGAGAAGGGCUCACAUGAGGAUCACCCAUGUGGUCCAGAAA [Isisan] (puzzle: Exclusion 6) | 20.2 nM | 16.1 nM | 18 nM | – | – | – |
| GCUACUCCAGUCAGGAUAUGGAUCGGCUAAAAGACCCAGAAGGGACUUGAGGAUCACCCAAGUAACGGCUCGGG [Soveare] (Eterna round: R97, puzzle: Brourd's mod of Exclusion 4) | – | – | – | 378 nM | 54.2 nM | – |
| GCUAGAGCAGGAUAUCUAGAUCCACACAUGAGGAUCACCCAUGUAGUCGAAAGACUAAGAAGAGAAGGGCUCUAGC [Omei Ex5 E16] (Eterna round: R97, puzzle: Exclusion 5) | – | – | – | 322 nM | 324 nM | – |
| GCUCAACAUGAGGAUCACCCAUGUCAGGAUAUGCGAAUUUCAUCAAAAGAUGAAAUUUGCAGAAGGGACUAAGC [Omei Ex1 A32] (Eterna round: R97, puzzle: Exclusion 1) | – | – | – | 114 nM | 52.6 nM | – |
